Results from the domain aggregation screens of Martell et al. (2025).

Assay: soluble fraction after stress (log2 fold change); higher = more stays soluble; pooled small domains, quantitative proteomics
Conditions: stress: 75 degC
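Also: 20 min heating vs room temperature control held 20 min.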

Row | Sequence | soluble fraction (log2)
1 | HMLTRQNFHGIKLPTIHEYIDLLNSRVNANIDKTNNWQSSVSHLRTYLNSHNINAVSKESINNYIDERLN | -1.4
2 | HMLTRRQSEVLDFIRQFAESESMPPTLHEIAKGMGFSSDNAARDHVRALARKGAIDLVGGTSRGIRLR | -1.22
3 | HMLTRSASREELDQLLKRLRQNLKQKNFFWPPDKEKSLVLYLENLFSKFPLNSSDIRFLHGIIRTLSEK | -0.188
4 | HMLVGKSVIMKTNESSSGMIAGKVNYWENIDGKIYLGINGKLYDIADVDTVLDNDYYDKLVN | -0.516
5 | HMLVKKYTEEETGRQAELSKQLAELSKAYYNTGNSMVDDAVFDKLRDELSSLEKESGFAYDISPNVS | -0.69
6 | HMLVNNSTIETVIDFANVKFGMELTKDQVSEQLRNLSFSQTLKLINSMKADDNDAFSEIIDL | -0.593
7 | HMLVSFGDHLKRYIYERAGIEEPFGEVPQEIYRDIAVDSFRETYTPKSMNPTSTKLPALVNNWLIQ | -0.843
8 | HMLVSVSNYLGQNVDTVKSDLEALGLVVKLKEQQTDRESENGAVLEQSIEGGSKVSAGTPITLTYGK | 0.945
9 | HMLWTHIALPVRSLDDTMAFYDKYTTLENIHERQDPETNMRSVWLANPGDKTEQAARFVLVLI | -0.119
10 | HMMTDAEKTFIFFSHLSSVEDHIAYGDKQFYMSLFWQHENKRELSSSQLYHLERLYNKYSMEEIEKKEEFS | -1.35
11 | HMMTDEEFLRIAGYMKQRYGIDLGQKKVIMNGRLENHIKSGGWSSFHAFMNDLEKDSSGKLEKELVNLLTT | -0.239
12 | HMMTLEESYKLLQVSHNASDIEITKAFKKLALLYHPDKNPSNIDWANKAMASINVAYNTIITHRFKEK | -1.38
13 | HMNAAYDEELDFIFSLSEKGKWEEAEAEIGLLLQKHPEDATLQRIGEWVTTQKILLRQQAVEDRIRS | -0.375
14 | HMNAEWMFDARKIPGLVMNYLRRIAVRAIEEKHYSPELVADLFGIDRTSIYDWLRKYRQQGEEALDTRKA | -1.28
15 | HMNAFEIYPNPASNLIRIDAEFTVAKIFSQTGNLIQTSTTKEIDVYNLANGIYFVKLDDSPSMVKFVIN | -0.795
16 | HMNALTEAESKLLERMNKAGIHAEITTKKAAGILQRSENGARTVLNSLVKKGYLTVETNKAPYIYHLH | -0.359
17 | HMNAMFEKVLAAVMGFIGVSAFAKNADGKSEMTSDQEKRLTDKWGSKFVEEFKNDLLEYEKNGNAAEDAV | -0.944
18 | HMNAPKKPLSAYFLFSQEERLKVKAENPDYSITEVAKELGKRWATLNPDIKTVYEQRYQDARRIYETEMNT | -0.372
19 | HMNAQLTTIPDLDGMNMRAATAMLSSLGLEVKRIGSGTVFAQFPKAGAAMRPGSMVTIRGKAKSL | -0.777
20 | HMNATLSSSYPTSVVTDGEIYKLTFGLNGKYNGQEQITVKPHGDSNIYDSGGLRAYQNTQSNNVVTLN | -0.0686
21 | HMNATQLSNTQKQIRTQLLERLSNNPLTVKQLADRMFVPIDTILKEITALIQEQKIIEDKGGKLQIN | -0.135
22 | HMNAVDLLSPQEQRIFELIGEGMSNRQIADVMYLAEKTVKNYVSNVLMKLGMERRTEAAALAARLDERQK | -0.179
23 | HMNAVITTQKAKQIALAHAGLSEADVNYVKAELENDDGVQVYDIEFYSKNIEYDYDINAVTGEIMSFDHDI | -0.251
24 | HMNAVYPNPFVSEIYIGENNRSVEIYNLNGGLVYGMSQPSSRIDVSGLAAGSYILIKKDSSGHISSHKIMK | -1.63
25 | HMNDAARQTTDILQHVRSSGSISFRDLWRLFMPFMAYRDFDAAVKSLVAAGHIATTENERKELHLIAF | -1.14
26 | HMNDEFYAVVRESYAGYALVKPLDEDVGYDILSVSVKNLKVGDIIRLKVKNIKEIYPPEAEVLEVEVLQ | -0.316

Row | Sequence | soluble fraction (log2)
27 | HMNDEQFAIAKNDLLLSLYDGKEVNNSAAEYIIAWESLEKSPSDYISSQLKNTAESIIKISFD | 0.258
28 | HMNDFVTVPDLQGIFYSEAIKKIDKMGLKEGSIQFVNQDKFLPNTVLNQNPKEGTKVSQDSPINLIIS | -0.012
29 | HMNDILETISNQIRDLRVSKKITQQELAERTNLSVPYISQIENGHRNISLETFIKIVDALDIPLSDFFLP | -1.95
30 | HMNDITVNVEDSKLIVTSNNPEKLPLYIMDIQGHILDKSEITAGTYSFPISDRGTYIVRIGENVYKVI | -0.166
31 | HMNDLKVGELAKRGNVTAETVRHYTREGLLSPTRHPDNGYQLFSATDLERLHFIQRARKLGFSVAEIRDIL | -0.915
32 | HMNDLVTWDRYKIELGDTLSEIAQKLVTRVDILKTVNQIQGTRIIAGNSLMVPRTTDTNVLTYL | 0.00348
33 | HMNDPIGDMLTRIRNAQMRGKSTVSTPASKLRAWVLEVLASEGYIRGFERATTDNGQGELVISLD | -0.682
34 | HMNDREAAYEDLPDELVRVGQKVFIKSLETEGVIVQPPNKKGEVRVRSGNISTNVKRSDLGLPIEKP | 0.0745
35 | HMNDRRQDVFELLKSSERPVSAADLAHKFGVTRQVIVADIALLRASDIDIVSTNRGYILKANL | -1.83
36 | HMNDYNLTDREKEVLTFLFQGLEYKEIGMKMSVSPNTIRNHISNIYKKLHVTSKTQAIRVFLNN | -4.09
37 | HMNEAMIMIDLKGKSRDEAVKELDELNLKYRFTGNGIVKDQKPKAGEEINSDTVVEVELSEIK | 0.12
38 | HMNEDYFTIAGYASLRGVNIDTSKANMLGRKATKLSREYGYDIGKVTDTRFGKVNSYHLDILKSIFEF | -0.575
39 | HMNEFSYLSELGSEKGDLIKGLQLVQSREGYVSDDAIRAISKHFSIAEAEVEGVLTFYAQFK | -1.28
40 | HMNEIESFSNTKNPFSLTFKTSKDSSYKVEASSNLKKWTTLSQIKGTGNPITFTESRRILFRKQYYRVTLS | -0.176
41 | HMNEISFYPNPAKESLTVKGLSEITSYSISDINGKLIQYGTTFDRINLEKLTKGFYFLTIGNTISKKLIV | -0.311
42 | HMNEISLKEITIEEDHPWRDKKIKELDLKEHILVAMIRRKDQDIIPNGETKIYKDDILVIYD | 0.00328
43 | HMNEKFNVYPIPVYNNLNITGLSKPVTYLISSIDGKTIKNGVFQESIDVSDLKSGLYFLQVETKDPVKFIK | -0.991
44 | HMNEKLNEYLNQVKAYLNTSDNKEDIIKELEAVVLEKAEKKYGQITDESISKILSEFGSPAEVAKEYS | 0.218
45 | HMNEKLRNYIDTLFEHAPTTVRAVELKEEMFQNLTDKYNDLIAQGKSEEAAFNIAVASIGDVDSLIAGLS | 0.179
46 | HMNELGSLIKRKREELGLSQEELARILGYKHKSSINKIELGLADVPRTKVPAFAKALGMTPVEFS | -0.12
47 | HMNELPSVIIMKNGRTRPYELQEISKDEEWLNQTIREHGIEPKDIFIAEFWDGRTAFILNDGRIVK | -0.428
48 | HMNERIKSLRKALGLTQQEFADKLGISRGNIGAYEVGKNAPSDAVISLIVRIFNTNENWLRTGEGEM | -0.776
49 | HMNETSRTRALNILGLKATATQEDIKKAYRSLAKEYHPDKLVGVSEGVKKISEEKFREINEAYEYLI | 0.557
50 | HMNEVIIKNWSNAVGRNIKIKTKRGRPIFGRLLAINDQQLTIASKYMRGNATITVAREDVVSMSVS | -3.08
51 | HMNEVRINTAHIEHKYLGEVKVLDIQEMRNARGRDADPLAFLAIRFWSPRGVLVRVKDSRDATPYWLIS | 0.199
52 | HMNEYHRNISDEEFVRDIKETAIKLKKETLTGVEYSQNGKYHASTIIHRFGSWKKALELAELNTK | -0.225

Row | Sequence | soluble fraction (log2)
53 | HMNFNYPVIVKNSRINVSGVLSAAKLYTINGQLLQSYKGSGEFTSKTLTKGIYILQVDNARTKVLV | -4.42
54 | HMNFSKEYILVHSYKEIDILDALIVKYEATLVNREFDLFINSYIKINEDYAKLFRDEIISKTSGSMSIKEL | -2.93
55 | HMNFTKHPENPNFVVYRFTDPERANSFRAELIANNISFEEDTEKKKQLIYTLFAIHTKYYNQSMQINIK | -0.843
56 | HMNFTVTDKNAVLYSNDNTKVYESPDINSKLVTTIAKDLPVNVTGITSNGWFRISLEGTYYVPGNGLEQR | -0.139
57 | HMNGADPYEQLGVTRDASDDELKAAHRKLSRENHPDTLMAKGMPPEFIEQANDKMARINAAWDQIRKERGI | 0.323
58 | HMNGAITLRVRPSDEGKRLDVFVVSQLTGYTRSFVAGLIGDRHFLVNGQPKKPGYRIKSSDTISGVIPAPA | -2.1
59 | HMNGARALAGAIAEAIRKQVYRVNERLPAERELASHYDVSRGTLRSALALLEQEGLVTRKVGSGTFVMPP | -0.761
60 | HMNGNLRAQVLELMGRADYEPLNKSELSRKLDLQGSDRSSLRILMDELERDHSVVRLKKGRFALKVV | -0.852
61 | HMNGQFIELKNTTGTIIEARVLSFQNGKVKLQRNDGLIFVASISIFDSESIEVIKQKVAEISESKKS | -1.97
62 | HMNGQITPSRAKEIALGHAGVSEGSANFKKIKLDNKNGRPAYEIEFIANNSRYEFEINASNGSIIKFNK | -0.321
63 | HMNGYGALVRLGRSRGWVTVEEINDHLPESAVRTAENVQEITEALGRLSIKVFETRPDEDDLLIT | -0.458
64 | HMNHGDATTETQAEIMAILSDMKPHPITELNTIKRPYEQIDTALTYLINEEKIYRMDGMIFIG | -1.38
65 | HMNHYTEEYILKRMKDFFTTHAYITRRDIESLFGFRRSYATKWLKHFRESGVLKQSGPVNSAVYLL | -3.18
66 | HMNIAESIRKYRKASGLTQEEMAKRLGVTTPAVSKWENGITNPDIALLAPIARLFHISVDTLLSYR | -1.83
67 | HMNIDKLVGSTGTVVRSVTPDTAGLVRVNDEDWRASAEEILYERDAIVVEGIEGVTLIVSKLS | -0.813
68 | HMNIETHIVPKLLAPIRLQEYGVGIFNNIPTKSALKKALKKQLITVDKTVATTATFIKGGETIELAYQ | -3.07
69 | HMNIGEKIKTLRENNNISIEELAEKINDSIENILKYENNELEPTLDKKLALSIALGVTLSDLS | 0.971
70 | HMNIGELINKKRTELGLTLEEVGNAVGVSKSTVKKWEDGFISNMRRDKISKLAKVLEMNPVSLITGE | 0.00376
71 | HMNIGSKLRYLIEEANITQRQLADALHISPSALNGYINQGKEPDYATLVRIADYFHTSTDYLLGHSNIR | -0.806
72 | HMNIIATHTVPAIEQKIRLQEYAISIFPQINSRSALKKAIAKKLVLLDGERASTADWIQPGQKIELLEDK | -1.37
73 | HMNILAPFWERFGLSAFAAGNYDRAEGYFRKLEQKDPNSMSVLRNLGLILMAKGDAEGAEAYLLREEKL | -0.755
74 | HMNILKKDKRLWDENNLNKPLLFELLENYDKEIFELLLTDKDIKAKFFVQAGESYVFKYDDFRFAIEQN | -3.32
75 | HMNIMAQDWISSPMGPISFKSNQHGLVKIGWGEVPRENTEQPNLEFTRKWLVDYFEGKASPLPYF | -0.623
76 | HMNIQGIFGRNLKQKRLEKGMTQEQLAEKAGVSTDTVKRYESGKYDGIRLDMAWYMANALDTPLQALLPP | 0.598
77 | HMNISALKGKIGEVYLKIPAHNAGKGKVLISLKGTHHELYAITRSGEDISSGEFVKVIEIEDEILVVEK | -2.05
